Assay results as given in PMC2789667 (Biochemistry, 2009).

Target: the molecule itself
Assay: SEC

B1: Recombinant rat NADPH-cytochrome P450 reductase with a single amino acid mutation of K56Q (enzyme, UniProt P00388 1-678, looked up)
chain: MGDSHEDTSATMPEAVAEEVSLFSTTDMVLFSLIVGVLTYWFIFRKKKEEIPEFSQIQTTAPPVKESSFVEKMKKTGRNIIVFYGSQTGTAEEFANRLSKDAHRYGMRGMSADPEEYDLADLSSLPEIDKSLVVFCMATYGEGDPTDNAQDFYDWLQETDVDLTGVKFAVFGLGNKTYEHFNAMGKYVDQRLEQLGAQRIFELGLGDDDGNLEEDFITWREQFWPAVCEFFGVEATGEESSIRQYELVVHEDMDVAKVYTGEMGRLKSYENQKPPFDAKNPFLAAVTANRKLNQGTERHLMHLELDISDSKIRYESGDHVAVYPANDSALVNQIGEILGADLDVIMSLNNLDEESNKKHPFPCPTTYRTALTYYLDITNPPRTNVLYELAQYASEPSEQEHLHKMASSSGEGKELYLSWVVEARRHILAILQDYPSLRPPIDHLCELLPRLQARYYSIASSSKVHPNSVHICAVAVEYEAKSGRVNKGVATSWLRAKEPAGENGGRALVPMFVRKSQFRLPFKSTTPVIMVGPGTGIAPFMGFIQERAWLREQGKEVGETLLYYGCRRSDEDYLYREELARFHKDGALTQLNVAFSREQAHKVYVQHLLKRDREHLWKLIHEGGAHIYVCGDARNMAKDVQNTFYDIVAEFGPMEHTQAVDYVKKLMTKGRYSLDVWS
Question: Does B1 bind?
Answer: Result: binds
